# The supplement of paper PMC9112550, “Optimization of the antimicrobial peptide Bac7 by deep mutational scanning” (BMC Biology, 2022)
# Tested on: Escherichia coli TOP10
# Test: shrunken log2 fold change of peptide-encoding DNA abundance (4.5 h post-induction vs induction); higher = less antimicrobial activity (less host growth inhibition)
# Conditions: time post-induction: 4.5 h; library: site-saturation at positions 5, 18, 19, 20
# 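Note: peptides expressed intracellularly from a pBAD plasmid library in pooled LB shake-flask culture, induced with 0.3% L-arabinose, DNA abundance read by NGS, three biological replicates, DESeq2 with apeglm shrinkage.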
row,Sequence,shrunken log2 fold change
1,RRIRDRPPRLPRPRPRPPGMPRP,0.201
2,RRIRDRPPRLPRPRPRPPHTPRP,0.198
3,RRIRDRPPRLPRPRPRPPMLPRP,-0.0165
4,RRIRDRPPRLPRPRPRPPRSPRP,1.11
5,RRIRDRPPRLPRPRPRPPSNPRP,0.137
6,RRIRDRPPRLPRPRPRPPSQPRP,0.113
7,RRIRDRPPRLPRPRPRPPTCPRP,0.0486
8,RRIRDRPPRLPRPRPRPPTSPRP,0.00594
9,RRIRDRPPRLPRPRPRPPTTPRP,0.151
10,RRIRDRPPRLPRPRPRPPVKPRP,0.421
11,RRIRDRPPRLPRPRPRPPWGPRP,0.344
12,RRIRDRPPRLPRPRPRPPWLPRP,0.296
13,RRIRDRPPRLPRPRPRPQACPRP,0.303
14,RRIRDRPPRLPRPRPRPQADPRP,0.103
15,RRIRDRPPRLPRPRPRPQAGPRP,0.152
16,RRIRDRPPRLPRPRPRPQAHPRP,0.0994
17,RRIRDRPPRLPRPRPRPQDTPRP,-0.366
18,RRIRDRPPRLPRPRPRPQESPRP,-0.257
19,RRIRDRPPRLPRPRPRPQFFPRP,-0.00144
20,RRIRDRPPRLPRPRPRPQFLPRP,-0.225
21,RRIRDRPPRLPRPRPRPQFNPRP,-0.195
22,RRIRDRPPRLPRPRPRPQGIPRP,-0.0548
23,RRIRDRPPRLPRPRPRPQICPRP,-0.0334
24,RRIRDRPPRLPRPRPRPQIPPRP,-0.085
25,RRIRDRPPRLPRPRPRPQKFPRP,-0.0467

row,Sequence,shrunken log2 fold change
1,RRIRDRPPRLPRPRPRPQLLPRP,0.206
2,RRIRDRPPRLPRPRPRPQLMPRP,0.419
3,RRIRDRPPRLPRPRPRPQNEPRP,-0.24
4,RRIRDRPPRLPRPRPRPQPCPRP,-0.0957
5,RRIRDRPPRLPRPRPRPQPDPRP,0.177
6,RRIRDRPPRLPRPRPRPQPTPRP,0.0584
7,RRIRDRPPRLPRPRPRPQQEPRP,0.00606
8,RRIRDRPPRLPRPRPRPQQNPRP,-0.452
9,RRIRDRPPRLPRPRPRPQSCPRP,-0.0045
10,RRIRDRPPRLPRPRPRPQSGPRP,-0.136
11,RRIRDRPPRLPRPRPRPQSYPRP,-0.495
12,RRIRDRPPRLPRPRPRPQTAPRP,4.26
13,RRIRDRPPRLPRPRPRPQTKPRP,-0.115
14,RRIRDRPPRLPRPRPRPQTNPRP,0.118
15,RRIRDRPPRLPRPRPRPQWSPRP,-0.0128
16,RRIRDRPPRLPRPRPRPQYWPRP,-0.695
17,RRIRDRPPRLPRPRPRPRAIPRP,0.108
18,RRIRDRPPRLPRPRPRPRCHPRP,-0.0835
19,RRIRDRPPRLPRPRPRPRELPRP,0.0713
20,RRIRDRPPRLPRPRPRPRHNPRP,-0.548
21,RRIRDRPPRLPRPRPRPRINPRP,0.0252
22,RRIRDRPPRLPRPRPRPRLKPRP,0.411
23,RRIRDRPPRLPRPRPRPRLWPRP,0.842
24,RRIRDRPPRLPRPRPRPRMTPRP,0.212
25,RRIRDRPPRLPRPRPRPRNLPRP,-0.0438

row,Sequence,shrunken log2 fold change
1,RRIRDRPPRLPRPRPRPRNMPRP,-0.602
2,RRIRDRPPRLPRPRPRPRNVPRP,0.0903
3,RRIRDRPPRLPRPRPRPRPRPRP,0.983
4,RRIRDRPPRLPRPRPRPRQDPRP,0.367
5,RRIRDRPPRLPRPRPRPRQPPRP,0.252
6,RRIRDRPPRLPRPRPRPRRLPRP,0.472
7,RRIRDRPPRLPRPRPRPRSCPRP,0.2
8,RRIRDRPPRLPRPRPRPRSQPRP,0.137
9,RRIRDRPPRLPRPRPRPRTCPRP,-0.0386
10,RRIRDRPPRLPRPRPRPRTNPRP,-0.179
11,RRIRDRPPRLPRPRPRPRTYPRP,-0.126
12,RRIRDRPPRLPRPRPRPRWCPRP,0.33
13,RRIRDRPPRLPRPRPRPRWWPRP,0.0238
14,RRIRDRPPRLPRPRPRPSCLPRP,-0.0009
15,RRIRDRPPRLPRPRPRPSCNPRP,-0.493
16,RRIRDRPPRLPRPRPRPSDLPRP,0.0645
17,RRIRDRPPRLPRPRPRPSDPPRP,-0.0499
18,RRIRDRPPRLPRPRPRPSDWPRP,0.137
19,RRIRDRPPRLPRPRPRPSECPRP,-0.043
20,RRIRDRPPRLPRPRPRPSEYPRP,-0.0118
21,RRIRDRPPRLPRPRPRPSFCPRP,-0.0945
22,RRIRDRPPRLPRPRPRPSFHPRP,-0.429
23,RRIRDRPPRLPRPRPRPSFNPRP,-0.68
24,RRIRDRPPRLPRPRPRPSGAPRP,0.0348
25,RRIRDRPPRLPRPRPRPSGPPRP,-0.0549
